# In patent US20220177587A1, “METHODS AND USES OF VARIANT CD80 FUSION PROTEINS AND RELATED CONSTRUCTS” (Alpine Immune Sciences, Inc., priority 2018, published 2022):
# Changes are numbered by the printed parent chain. Names and notes keep the numbering of the source.
# B1: variant CD80 IgV-Fc (inert) H18F/A26N/E35D/M47V/V68M/A71G/D90K (Fc fusion)
# chain: VIHVTKEVKEVATLSCGFNVSVEELNQTRIYWQKDKKMVLTMMSGDVNIWPEYKNRTIFDITNNLSIMILGLRPSDEGTYECVVLKYEKKAFKREHLAEVTLSVKAD
# B2: variant CD80 IgV-Fc (inert) H18Y/E35D/M47V/V68L/A71G/D90G (Fc fusion)
# chain: B1 chain with F18Y, N26A, M68L, K90G
# B3: variant CD80 IgV-Fc (inert) H18Y/A26P/E35D/M47Y/V68I/A71G/D90G (Fc fusion)
# chain: B1 chain with F18Y, N26P, V47Y, M68I, K90G
# B4: variant CD80 IgV-Fc M47L/V68M/A71G/D90G (Fc fusion)
# chain: B1 chain with F18H, N26A, D35E, V47L, K90G
# B5: variant CD80 IgV-Fc H18Y/V68M/A71G/D90G (Fc fusion)
# chain: B1 chain with F18Y, N26A, D35E, V47M, K90G
# B6: variant CD80 IgV-Fc (inert) H18F/A26P/E35D/M47I/V68M/A71G/D90G (Fc fusion)
# chain: B1 chain with N26P, V47I, K90G
# B7: variant CD80 IgV-Fc (inert) H18Y/A26P/E35D/M47I/V68M/A71G (Fc fusion)
# chain: B1 chain with F18Y, N26P, V47I, K90D
# B8: variant CD80 IgV-Fc (inert) H18V/E35D/M47V/V68M/A71G/D90G (Fc fusion)
# chain: B1 chain with F18V, N26A, K90G
# B9: variant CD80 IgV-Fc (inert) H18V/A26Q/E35D/M47V/V68L/A71G/D90G (Fc fusion)
# chain: B1 chain with F18V, N26Q, M68L, K90G
# B10: variant CD80 IgV-Fc (inert) H18F/A26D/E35D/D46E/M47T/V68M/A71G/D90G (Fc fusion)
# chain: B1 chain with N26D, D46E, V47T, K90G
# B11: variant CD80 IgV-Fc (inert) H18V/A26D/E35D/M47V/V68M/A71G/D90G (Fc fusion)
# chain: B1 chain with F18V, N26D, K90G
# B12: variant CD80 IgV-Fc M47L (Fc fusion)
# chain: B1 chain with F18H, N26A, D35E, V47L, M68V, G71A, K90D
# B13: variant CD80 IgV-Fc E35D/D46V/M47L/L85Q (Fc fusion)
# chain: B1 chain with F18H, N26A, D46V, V47L, M68V, G71A, L85Q, K90D
# B14: variant CD80 IgV-Fc E35D/M47L/V68M (Fc fusion)
# chain: B1 chain with F18H, N26A, V47L, G71A, K90D
# B15: variant CD80 IgV-Fc E35D/N48K (Fc fusion)
# chain: B1 chain with F18H, N26A, V47M, N48K, M68V, G71A, K90D
# B16: variant CD80 IgV-Fc E35D/N48K/K89N (Fc fusion)
# chain: B1 chain with F18H, N26A, V47M, N48K, M68V, G71A, K89N, K90D
# B17: variant CD80 IgV-Fc M47V/N48K/K89N (Fc fusion)
# chain: B1 chain with F18H, N26A, D35E, N48K, M68V, G71A, K89N, K90D
# B18: variant CD80 IgV-Fc D46V/M47L/V68M (Fc fusion)
# chain: B1 chain with F18H, N26A, D35E, D46V, V47L, G71A, K90D
# B19: variant CD80 IgV-Fc E35D/V68M/L85Q (Fc fusion)
# chain: B1 chain with F18H, N26A, V47M, G71A, L85Q, K90D
# B20: variant CD80 IgV-Fc E35D/D46V/M47L/V68M/L85Q (Fc fusion)
# chain: B1 chain with F18H, N26A, D46V, V47L, G71A, L85Q, K90D
# B21: variant CD80 IgV-Fc D46V/L85Q (Fc fusion)
# chain: B1 chain with F18H, N26A, D35E, D46V, V47M, M68V, G71A, L85Q, K90D
# Target: CD28 (human) (UniProt P10747)
# Assay: flow cytometry, Jurkat cells (CD28)
Binder,MFI at 33.3 nM [MFI],Fold change to WT CD80 [fold]
B1,3170,–
B2,2550,–
B3,1820,–
B4,3610,82.2
B5,3410,77.8
B6,4800,–
B7,5120,–
B8,2120,–
B9,3130,–
B10,6030,–
B11,6250,–

# Target: human PD-L1 (human) (UniProt Q9NZQ7)
# Sequence (Q9NZQ7 19-290): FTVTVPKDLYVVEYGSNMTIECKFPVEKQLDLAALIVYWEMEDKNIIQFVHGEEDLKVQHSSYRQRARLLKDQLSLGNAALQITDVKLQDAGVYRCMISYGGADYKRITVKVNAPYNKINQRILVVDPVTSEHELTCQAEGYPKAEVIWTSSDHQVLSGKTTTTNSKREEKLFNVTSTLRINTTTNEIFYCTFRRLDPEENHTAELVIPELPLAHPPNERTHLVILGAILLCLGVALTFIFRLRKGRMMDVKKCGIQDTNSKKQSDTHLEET
# Assay: flow cytometry, CHO cells expressing huPD-L1
row,Binder,MFI at 33.3 nM [MFI]
1,B12,1900
2,B13,7520
3,B14,27900
4,B15,6540
5,B16,5770
6,B17,2370
7,B18,28000
8,B19,5970
9,B20,28400
10,B21,2200

# Target: human CTLA-4 (human) (UniProt P16410)
# Sequence (P16410 36-223): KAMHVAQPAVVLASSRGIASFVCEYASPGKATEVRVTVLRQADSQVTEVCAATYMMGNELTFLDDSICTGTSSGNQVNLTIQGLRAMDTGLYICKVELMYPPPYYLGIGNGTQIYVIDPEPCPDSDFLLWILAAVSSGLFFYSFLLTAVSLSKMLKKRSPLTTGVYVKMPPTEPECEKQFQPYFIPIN
# Assay: flow cytometry, CHO cells expressing huCTLA-4
row,Binder,MFI at 33.3 nM [MFI]
1,B12,30800
2,B13,38200
3,B14,28600
4,B15,41300
5,B16,34700
6,B17,42100
7,B18,34700
8,B19,42800
9,B20,26200
10,B21,41900

# Target: CD28 (human) (UniProt P10747)
# Assay: flow cytometry, Jurkat/IL2 reporter cells (CD28)
row,Binder,MFI at 33.3 nM [MFI]
1,B12,309
2,B13,268
3,B14,1240
4,B15,194
5,B16,411
6,B17,366
7,B18,2180
8,B19,76.2
9,B20,464
10,B21,131

# Target: human CTLA-4 (human) (UniProt P16410)
# Assay: flow cytometry, CHO cells stably expressing CTLA4
Binder,MFI at 33.3 nM [MFI],Fold change to WT CD80 [fold]
B1,15200,–
B2,16500,–
B3,8280,–
B4,17400,12.8
B5,22300,16.4
B6,23900,–
B7,12200,–
B8,16800,–
B9,17700,–
B10,17200,–
B11,22100,–

# Target: human PD-L1 (human) (UniProt Q9NZQ7)
# Assay: flow cytometry, CHO cells stably expressing PD-L1
Binder,MFI at 33.3 nM [MFI],Fold change to WT CD80 [fold]
B1,22400,–
B2,47900,–
B3,27300,–
B4,31100,714
B5,30700,703
B6,32300,–
B7,54500,–
B8,43600,–
B9,33600,–
B10,27500,–
B11,67500,–

# Target: human CTLA-4 (human) (UniProt P16410)
# Assay: flow cytometry, CHO/CTLA4 cells; MFI over CD80 WT IgV-Fc
row,Binder,Fold change to WT CD80 [fold]
1,B1,11
2,B2,11.9
3,B3,6
4,B6,17.3
5,B7,8.8
6,B8,12.1
7,B9,12.8
8,B10,12.4
9,B11,16

# Target: human PD-L1 (human) (UniProt Q9NZQ7)
# Assay: flow cytometry, CHO/PD-L1 cells; MFI over CD80 WT IgV-Fc
row,Binder,Fold change to WT CD80 [fold]
1,B1,136
2,B2,290
3,B3,165
4,B6,196
5,B7,330
6,B8,264
7,B9,204
8,B10,167
9,B11,409

# Target: human PD-L1 (human) (UniProt Q9NZQ7)
# Assay: flow cytometry, MFI on PD-L1 cells over MFI on CD28 cells
row,Binder,Ratio of PDL1:CD28
1,B4,8.6
2,B5,9

# Target: human PD-L1 (human) (UniProt Q9NZQ7)
# Assay: flow cytometry; PD-L1 MFI over CD28 MFI of the same protein
row,Binder,Ratio of PDL1:CD28
1,B12,6.1
2,B13,28.1
3,B14,22.4
4,B15,33.7
5,B16,14
6,B17,6.5
7,B18,12.8
8,B19,78.4
9,B20,61.2
10,B21,16.8

# Target: human PD-L1 (human) (UniProt Q9NZQ7)
# Assay: flow cytometry, CHO/huPD-L1 cells; vs WT CD80 ECD-Fc (Abcam)
row,Binder,Fold change to WT CD80 [fold]
1,B12,14.8
2,B13,58.8
3,B14,218
4,B15,51.1
5,B16,45
6,B17,18.5
7,B18,219
8,B19,46.6
9,B20,222
10,B21,17.2

# Target: CD28 (human) (UniProt P10747)
# Assay: flow cytometry, Jurkat cells (CD28); MFI over CD80 WT IgV-Fc
row,Binder,Fold change to WT CD80 [fold]
1,B1,31.1
2,B2,25
3,B3,17.8
4,B6,47.1
5,B7,50.2
6,B8,20.7
7,B9,30.6
8,B10,59.1
9,B11,61.3

# Target: human CTLA-4 (human) (UniProt P16410)
# Assay: flow cytometry, CHO/huCTLA-4 cells; vs WT CD80 ECD-Fc (Abcam)
row,Binder,Fold change to WT CD80 [fold]
1,B12,0.8
2,B13,0.9
3,B14,0.7
4,B15,1
5,B16,0.9
6,B17,1
7,B18,0.9
8,B19,1.1
9,B20,0.6
10,B21,1

# Target: CD28 (human) (UniProt P10747)
# Assay: flow cytometry, Jurkat cells (CD28); vs WT CD80 ECD-Fc (Abcam)
row,Binder,Fold change to WT CD80 [fold]
1,B12,0.4
2,B13,0.4
3,B14,1.8
4,B15,0.3
5,B16,0.6
6,B17,0.5
7,B18,3.1
8,B19,0.1
9,B20,0.7
10,B21,0.2
